# Results taken from article doi:10.1101/2020.11.06.371997.
# B1: TTAGGG2 duplex (dsDNA)
# DNA 1: GGTTAGGGTTAG
# DNA 2: CTAACCCTAACC
# B2: TTAGGG4 duplex (dsDNA)
# DNA 1: TTAGGGTTAGGGTTAGGGTTAGGG
# DNA 2: CCCTAACCCTAACCCTAACCCTAA
# How the values were obtained:
# [1] = biological target: T1, Trf2ΔN-FG3 (UmTrf2) (Ustilago maydis, UniProt A0A0D1E1Z3 415-1528); experiment: EMSA
# [2] = biological target: T1, Trf2ΔN-FG3 (UmTrf2); experiment: EMSA; remark: listed apart in the source
Binder,binding result [1],Kd [2] [nM]
B1,no binding,
B2,,20
